MFI and IC50 data for eleven molecules are collected here from patent publication US12252534 (Scripps Research, dated 2025).

Experiment [1] addresses T1, human CD3 on human T cells (Jurkat) (human, UniProt P07766 23-207; P04234 22-171; P09693 23-182).
T1 construct: whole, on cells; also called huCD3+; cell surface CD3 on human (Jurkat) T cells
Nature of the experiment: flow cytometry, Jurkat cells, 8 nM antibody. From the text: (§1) To express humanized Fabs in mammalian cells, VH genes (VH1 and VH2) and VL genes (VL1~VL10) shown in FIG. 2 were individually cloned into the pFUSE vector under the IL2 signal peptide sequence. Light and heavy chains expression vectors were used to co-transfect Expi293F cells according to manufacturer's protocol. On day 3 or 4, cultured media was harvested and secreted Fabs were purified by Protein G chromatography. Binding affinity of humanized candidates for human and cynomolgus T cells were evaluated by flow cytometry. Briefly, cells were incubated with humanized Fabs at 4° C. for 30 min and washed twice with staining buffer (1% BSA in PBS). […] After several washes, samples were acquired on a BD LSR II or BD Accuri C6 and analyzed using FlowJo 7.6.2 software.
For orientation: In flow cytometry, cells or beads pass a laser one at a time.

The target of experiment [2] is T1, human CD3 on human T cells (Jurkat). Nature of the experiment: flow cytometry titration on Jurkat cells.
From the text: as §1

Experiment [3] shares this target. Nature of the experiment: flow cytometry, Jurkat cells, 40 nM antibody.
From the text: as §1

Experiment [4] shares this target. Nature of the experiment: flow cytometry, Jurkat cells, 1.6 nM antibody.
From the text: as §1

The target is the same in experiment [5]. Nature of the experiment: flow cytometry, Jurkat cells, 0 nM antibody (background).
From the text: as §1

For experiment [6] the target is unchanged. Nature of the experiment: flow cytometry, Jurkat cells, 200 nM antibody.
From the text: as §1

Experiment [7] shares this target. Nature of the experiment: flow cytometry, Jurkat cells, 1000 nM antibody.
From the text: as §1

The target is the same in experiment [8]. Nature of the experiment: flow cytometry, Jurkat cells, 0.32 nM antibody.
From the text: as §1

T1 sequence (P07766 23-207, chain 1 of 3): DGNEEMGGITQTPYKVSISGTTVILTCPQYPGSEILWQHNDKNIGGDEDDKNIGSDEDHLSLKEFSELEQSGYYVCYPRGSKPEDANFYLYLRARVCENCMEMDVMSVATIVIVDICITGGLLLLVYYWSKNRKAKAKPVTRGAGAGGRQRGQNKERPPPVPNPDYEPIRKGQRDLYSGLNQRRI
T1 sequence (P04234 22-171, chain 2 of 3): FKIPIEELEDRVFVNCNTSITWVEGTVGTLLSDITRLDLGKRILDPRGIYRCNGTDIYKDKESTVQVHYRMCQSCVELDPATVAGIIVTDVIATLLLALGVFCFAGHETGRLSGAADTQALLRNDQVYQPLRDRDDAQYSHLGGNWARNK
T1 sequence (P09693 23-182, chain 3 of 3): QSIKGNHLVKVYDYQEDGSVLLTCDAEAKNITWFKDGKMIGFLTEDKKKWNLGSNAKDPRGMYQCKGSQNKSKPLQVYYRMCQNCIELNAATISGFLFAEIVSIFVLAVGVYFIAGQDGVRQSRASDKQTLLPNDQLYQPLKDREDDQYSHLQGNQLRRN

B1: HuL3H2 (Fab, V domains shown)
VH: EVQLVESGGGLVQPGGSLKLSCAASGFTFNTYAMNWVRQASGKGLEWVARIRSKYNNYATYYADSVKDRFTISRDDSKNTLYLQMNSLKTEDTAVYYCVRHGNFGNSYVSWFAYWGQGTLVTVSS
VL: QAVVTQEPSLTVSPGGTVTLTCGSSTGAVTTSNYANWVQQKPGQAFRGLIGGTNKRAPWTPARFSGSLLGGKAALTISGAQPEDEAEYYCALWYSNLWVFGGGTKLTVL
notes: Humanized Fab expressed in Expi293F; also called VL3 + VH2 humanized Fab
Usually IC50 stands for the concentration needed to halve the response being measured. For B1, the MFI in experiment [1] turned out to be 610; in experiment [3] it was 650; in experiment [4], 610; in experiment [5], 559; in experiment [6] it was 643; in experiment [7] it was 666. Moreover, in experiment [8], the MFI came out at 600. This molecule also returned an IC50 in experiment [2] of 17.7 nM.

B2: Murine anti-CD3 (antibody, V domains shown)
VH: EVQLVESGGGLVQPKGSLKLSCAASGFTFNTYAMNWVRQAPGKGLEWVARIRSKYNNYATYYADSVKDRFTISRDDSQSILYLQMNNLKTEDTAMYYCVRHGNFGNSYVSWFAYWGQGTLVTVSS
VL: QAVVTQESALTTSPGETVTLTCRSSTGAVTTSNYANWVQEKPDHLFTGLIGGTNKRAPGVPARFSGSLIGDKAALTITGAQTEDEAIYFCALWYSNLWVFGGGTKLTVL
notes: also called murine anti-CD3 VL/VH
For B2, the MFI amounted to 28500 in experiment [1]; 41400 in experiment [3]; 10500 in experiment [4]; 1400 in experiment [5]; 50600 in experiment [6]; 54400 in experiment [7]. For the same molecule, the MFI in experiment [8] was 3560. In addition, in experiment [2], the IC50 was 7.73 nM.

B3: HuL8H2 (Fab, V domains shown)
VH: EVQLVESGGGLVQPGGSLKLSCAASGFTFNTYAMNWVRQASGKGLEWVARIRSKYNNYATYYADSVKDRFTISRDDSKNTLYLQMNSLKTEDTAVYYCVRHGNFGNSYVSWFAYWGQGTLVTVSS
VL: QAVVTQEPSLTVSPGGTVTLTCGSSTGAVTTSNYANWVQQKPDHLFRGLIGGTNKRAPGTPARFSGSLLGGKAALTISGAQPEDEAEYYCALWYSNLWVFGGGTKLTVL
notes: Humanized Fab expressed in Expi293F; also called VL8 + VH2 humanized Fab
Turning to B3, the MFI in experiment [1] was 7670; in experiment [3], 22000; in experiment [4], 2120; in experiment [5], 559; in experiment [6], 42000; in experiment [7] it was 54600. Moreover, the MFI in experiment [8] was found to be 837. Besides, the IC50 in experiment [2] was 78 nM.

B4: HuL1H1 (Fab, V domains shown)
VH: EVQLVESGGGLVQPGGSLKLSCAASGFTFNTYAMNWVRQASGKGLEWVGRIRSKYNNYATYYADSVKDRFTISRDDSKNTLYLQMNSLKTEDTAVYYCVRHGNFGNSYVSWFAYWGQGTLVTVSS
VL: QAVVTQEPSLTVSPGGTVTLTCGSSTGAVTTSNYANWFQQKPGQAPRTLIYGTNKRAPWTPARFSGSLLGGKAALTISGAQPEDEAEYYCALWYSNLWVFGGGTKLTVL
notes: Detected with anti-human kappa; also called VL1 + VH1 humanized Fab
With B4, the MFI in experiment [1] came to 1450; in experiment [3] it was 1450; in experiment [4] it was 1440; in experiment [5] it was 1400; in experiment [6] it was 1460; in experiment [7], 1470. This molecule yielded an MFI in experiment [8] of 1400.

B5: HuL2H2 (Fab, V domains shown)
VH: EVQLVESGGGLVQPGGSLKLSCAASGFTFNTYAMNWVRQASGKGLEWVARIRSKYNNYATYYADSVKDRFTISRDDSKNTLYLQMNSLKTEDTAVYYCVRHGNFGNSYVSWFAYWGQGTLVTVSS
VL: QAVVTQEPSLTVSPGGTVTLTCGSSTGAVTTSNYANWVQQKPGQAFRGLIYGTNKRAPWTPARFSGSLLGGKAALTISGAQPEDEAEYYCALWYSNLWVFGGGTKLTVL
notes: Humanized Fab expressed in Expi293F; also called VL2 + VH2 humanized Fab
For B5, the MFI in experiment [1] stood at 1450; in experiment [3], 1450; in experiment [4], 1440; in experiment [5] it was 1400; in experiment [6] it was 1460; in experiment [7] it was 1470. Further, in experiment [8], the MFI was determined as 1400.

B6: HuL6H2 (Fab, V domains shown)
VH: EVQLVESGGGLVQPGGSLKLSCAASGFTFNTYAMNWVRQASGKGLEWVARIRSKYNNYATYYADSVKDRFTISRDDSKNTLYLQMNSLKTEDTAVYYCVRHGNFGNSYVSWFAYWGQGTLVTVSS
VL: QAVVTQEPSLTVSPGGTVTLTCRSSTGAVTTSNYANWFQQKPDHLPRTLIYGTNKRAPGTPARFSGSLLGDKAALTISGAQPEDEAEYYCALWYSNLWVFGGGTKLTVL
notes: Humanized Fab expressed in Expi293F; also called VL6 + VH2 humanized Fab
On to B6, for which the MFI in experiment [1] came out at 573; in experiment [3] it was 598; in experiment [4], 597; in experiment [5], 559; in experiment [6] it was 835; in experiment [7], 2200. This molecule had an MFI in experiment [8] of 572. The same molecule returned an IC50 in experiment [2] of 677 nM.

B7: HuL10H2 (Fab, V domains shown)
VH: EVQLVESGGGLVQPGGSLKLSCAASGFTFNTYAMNWVRQASGKGLEWVARIRSKYNNYATYYADSVKDRFTISRDDSKNTLYLQMNSLKTEDTAVYYCVRHGNFGNSYVSWFAYWGQGTLVTVSS
VL: QAVVTQEPSLTTSPGGTVTLTCRSSTGAVTTSNYANWVQQKPDHLFTGLIGGTNKRAPGVPARFSGSLIGDKAALTISGAQPEDEAEYYCALWYSNLWVFGGGTKLTVL
notes: Humanized Fab expressed in Expi293F; also called VL10 + VH2 humanized Fab
As to B7, the MFI in experiment [1] worked out at 3270; in experiment [3], 12700; in experiment [4], 1610; in experiment [5], 559; in experiment [6] it was 31300; in experiment [7] it was 46300. For the same molecule, the MFI in experiment [8] was found to be 688. This molecule also came in with an IC50 in experiment [2] of 139 nM.

B8: HuL9H2 (Fab, V domains shown)
VH: EVQLVESGGGLVQPGGSLKLSCAASGFTFNTYAMNWVRQASGKGLEWVARIRSKYNNYATYYADSVKDRFTISRDDSKNTLYLQMNSLKTEDTAVYYCVRHGNFGNSYVSWFAYWGQGTLVTVSS
VL: QAVVTQEPSLTVSPGGTVTLTCGSSTGAVTTSNYANWVQQKPGQAFRGLIGGTNKRAPGVPDRFSGSLLGGKAALTISGAQPEDEAEYYCALWYSNLWVFGGGTKLTVL
notes: Humanized Fab expressed in Expi293F; also called VL9 + VH2 humanized Fab
Turning to B8, the MFI amounted to 2760 in experiment [1]; 9950 in experiment [3]; 986 in experiment [4]; 559 in experiment [5]; 27900 in experiment [6]; 39400 in experiment [7]. In experiment [8], this molecule showed an MFI of 637. In experiment [2], this molecule came in with an IC50 of 119 nM.

B9: HuL4H2 (Fab, V domains shown)
VH: EVQLVESGGGLVQPGGSLKLSCAASGFTFNTYAMNWVRQASGKGLEWVARIRSKYNNYATYYADSVKDRFTISRDDSKNTLYLQMNSLKTEDTAVYYCVRHGNFGNSYVSWFAYWGQGTLVTVSS
VL: QAVVTQEPSLTVSPGGTVTLTCGSSTGAVTTSNYANWVQQKPGQAFRGLIYGTNKRAPWTPARFSGSLLGDKAALTISGAQPEDEAEYYCALWYSNLWVFGGGTKLTVL
notes: Humanized Fab expressed in Expi293F; also called VL4 + VH2 humanized Fab
Turning to B9, the MFI in experiment [1] was 620; in experiment [3], 620; in experiment [4], 615; in experiment [5], 559; in experiment [6], 620; in experiment [7], 650. The molecule further returned an MFI in experiment [8] of 599.

B10: HuL7H2 (Fab, V domains shown)
VH: EVQLVESGGGLVQPGGSLKLSCAASGFTFNTYAMNWVRQASGKGLEWVARIRSKYNNYATYYADSVKDRFTISRDDSKNTLYLQMNSLKTEDTAVYYCVRHGNFGNSYVSWFAYWGQGTLVTVSS
VL: QAVVTQEPSLTVSPGGTVTLTCRSSTGAVTTSNYANWVQQKPGQAFRGLIGGTNKRAPGTPARFSGSLLGDKAALTISGAQPEDEAEYYCALWYSNLWVFGGGTKLTVL
notes: Humanized Fab expressed in Expi293F; also called VL7 + VH2 humanized Fab
For B10, the MFI is 4240 in experiment [1]; 13600 in experiment [3]; 2040 in experiment [4]; 1250 in experiment [5]; 28900 in experiment [6]; 35400 in experiment [7]. In addition, the MFI in experiment [8] was determined as 1570. Besides, in experiment [2], half-maximal inhibition (IC50) was put at 70.4 nM.

B11: huL5H2 (heavy chain SEQ ID NO: 41 and light chain SEQ ID NO: 39) (Fab, V domains shown)
VH: EVQLVESGGGLVQPGGSLKLSCAASGFTFNTYAMNWVRQASGKGLEWVARIRSKYNNYATYYADSVKDRFTISRDDSKNTLYLQMNSLKTEDTAVYYCVRHGNFGNSYVSWFAYWGQGTLVTVSS
VL: QAVVTQEPSLTVSPGGTVTLTCRSSTGAVTTSNYANWVQQKPDHLFRGLIGGTNKRAPGTPARFSGSLLGDKAALTISGAQPEDEAEYYCALWYSNLWVFGGGTKLTVLK
notes: also called VL5 kappa + H2 Fab
Regarding B11, the MFI was 31700 in experiment [1]; 41600 in experiment [3]; 13400 in experiment [4]; 1400 in experiment [5]; 48000 in experiment [6]; 51800 in experiment [7]. Besides, the MFI in experiment [8] came out at 4430. In experiment [2], the IC50 is 4.46 nM.
